The values that follow come from paper PMC4020580.

The experiment concerns the target bovine trypsin (bovine).

Turning to “labeled single-Cys S47C α1AT (natural protein)”, the stoichiometry of inhibition (SI) of bovine trypsin is 1.1.
With “labeled single-Cys S313C α1AT (natural protein)” the figure was 1.1; with “α1AT Ser313Cys double-Cys variant (2Cys313), unlabeled (natural protein)”, 1.1.
